In paper PMC2945938, “The characterization of conserved binding motifs and potential target genes for M. tuberculosis MtrAB reveals a link between the two-component system and the drug resistance of M. smegmatis”:

Columns and labels:
[1] = target: T1, MtrA (Mycobacterium tuberculosis) (UniProt P9WGM7); assay: DNase I footprinting
T1 sequence: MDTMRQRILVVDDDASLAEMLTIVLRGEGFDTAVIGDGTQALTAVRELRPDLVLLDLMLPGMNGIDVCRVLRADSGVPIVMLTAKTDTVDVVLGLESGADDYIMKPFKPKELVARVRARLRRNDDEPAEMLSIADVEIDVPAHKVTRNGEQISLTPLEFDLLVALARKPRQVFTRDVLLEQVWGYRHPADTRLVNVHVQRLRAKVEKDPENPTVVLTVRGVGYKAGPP

MtrA [2] = target: T2, MtrA (Mycobacterium tuberculosis, UniProt P9WGM7 1-228); assay: EMSA; 100-600 nM MtrA; conditions: protein: recombinant, tags: 6His (pET28a) or GST (pGEX-4T-1), chain copies: 2
T2 sequence: T1 sequence

MtrA [3] = target: T2, MtrA; assay: EMSA; conditions: protein: recombinant; tags: 6His (pET28a) or GST (pGEX-4T-1); chain copies: 2; label: 32P

Question: Which binding [1] does the source give for “AATTCTACGGAAAACTGTTAGCTTCGGGCGGTGTAGTTATCACGCCGTTTCAGCGTGGAAACGGCACTCGACAATCAAGCGAGGATGGC (double strand) [S6 (84 bp)]” here?
Answer: Its binding is “binds”.

Question: How did the binding [1] turn out when “AATTCTAGCGGCCCGGACAACTTGAACCGGGTGTTTTCAACACGAGGATCGCGAGCCGTTGCCGGTAGGTTGCGGCTGGT (double strand) [S7 (75 bp)]” was run?
Answer: Its binding is “binds”.

B1: S4 (dsDNA)
DNA 1: GCGAGCCGTTGCCGGTAGGTTGCGGCTGGT
DNA 2: ACCAGCCGCAACCTACCGGCAACGGCTCGC
Question: Does B1 bind (MtrA [2]; label: 32P)?
Answer: Result: no binding

B2: S3 (dsDNA)
DNA 1: TTTCAGCGTGGAAACGGCACTC
DNA 2: GAGTGCCGTTTCCACGCTGAAA
Question: Does B2 bind (MtrA [2]; label: 32P)?
Answer: Result: no binding

B3: CglumepAp (dsDNA)
DNA 1: CCCCTAGCACGGCGTGTTTGG
DNA 2: CCAAACACGCCGTGCTAGGGG
Question: Does B3 bind (MtrA [3])?
Answer: Result: binds

B4: Negative control (dsDNA)
DNA 1: CGGAGGTGGTTTTCGCTGCT
DNA 2: AGCAGCGAAAACCACCTCCG
Question: Does B4 bind (MtrA [3])?
Answer: Result: no binding

B5: Rv3476cp (kgtP) (dsDNA)
DNA 1: CTGCATCCACGCCGGCGACACGCCGAGGGACG
DNA 2: CGTCCCTCGGCGTGTCGCCGGCGTGGATGCAG
Question: Does B5 bind (MtrA [3])?
Answer: Result: binds

B6: Rv0341p (iniB) (dsDNA)
DNA 1: CGCCGGTCACGCCGGCGAACA
DNA 2: TGTTCGCCGGCGTGACCGGCG
Question: Does B6 bind (MtrA [3])?
Answer: Result: binds

B7: S1 (dsDNA)
DNA 1: GCGGTGTAGTTATCACGCCG
DNA 2: CGGCGTGATAACTACACCGC
Question: Does B7 bind (MtrA [2]; label: 32P)?
Answer: Result: binds

B8: Rv0574cp (dsDNA)
DNA 1: GCGGTCTTGAGGACCTTCGGCCCCACCCACGAGGCCGCCG
DNA 2: CGGCGGCCTCGTGGGTGGGGCCGAAGGTCCTCAAGACCGC
Question: Does B8 bind (MtrA [3])?
Answer: Result: binds

B9: S2 (dsDNA)
DNA 1: TCACGCCGTTTCAGCGTGGAAACGGCACTC
DNA 2: GAGTGCCGTTTCCACGCTGAAACGGCGTGA
Question: Does B9 bind (MtrA [2]; label: 32P (EMSA))?
Answer: Result: binds

B10: CgluproPp (dsDNA)
DNA 1: GACTTTTCACCCCGAACCTTA
DNA 2: TAAGGTTCGGGGTGAAAAGTC
Question: Does B10 bind (MtrA [3])?
Answer: Result: binds

B11: S5 (dsDNA)
DNA 1: AACACGAGGATCGCGAGCCGTTGCCGGTAGGTTGCGGCTGGT
DNA 2: ACCAGCCGCAACCTACCGGCAACGGCTCGCGATCCTCGTGTT
Question: Does B11 bind (MtrA [2]; label: 32P (EMSA))?
Answer: Result: binds
